Experiments:
[1] = molecular target: T1, native mouse MET on living mouse cells (mouse, UniProt P16056 25-1379); assay: flow cytometry, MLP29 cells
T1 construct: whole, on cells; also called Mouse cells (MLP29)
Summary of the method: (§1)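 Read-out was flow cytometry of living cells stained with chimeric anti-MET antibodies, then phycoerythrin-labelled anti-human IgG1 secondary. Values are maximal binding (EMAX).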

[2] = molecular target: T2, native human MET on living human cells (human, UniProt P08581 25-1390); assay: flow cytometry, A549 cells
T2 construct: whole, on cells; also called Human cells (A549); HPAF-II
Summary of the method: as §1

[3] = molecular target: human MET ECD mutant J (mutations 6, 7) (human) (UniProt P08581); assay: ELISA, MET ECD mutant in solid phase, mAb 0-50 nM
[4] = molecular target: human MET ECD mutant I (mutations 6, 7, 8) (human) (UniProt P08581); assay: ELISA, MET ECD mutant in solid phase, mAb 0-50 nM
[5] = molecular target: T3, human MET-Fc chimeric protein (R&D Systems) (human, UniProt P08581 25-932); assay: competition ELISA, hMET-Fc in solid phase, competitor 0.3 nM biotinylated hHGF
T3 construct: extracellular domain; bought (R&D Systems); also called hMET; not shown: Fc portion of human IgG1
Summary of the method: (§2)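 An ELISA format measured how well mAbs (0-120 nM) displaced N-terminus-biotinylated HGF from plate-bound receptor. Results are given as the concentration producing 50% competition and as IMAX, the saturating maximum percentage.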

[6] = molecular target: T4, mouse MET-Fc chimeric protein (R&D Systems) (mouse, UniProt P16056 25-929, limits assumed); assay: competition ELISA, mMET-Fc in solid phase, competitor 0.3 nM biotinylated mHGF
T4 construct: bought (R&D Systems); also called mMET; not shown: Fc
Summary of the method: as §2

[7] = molecular target: T2, native human MET on living human cells; assay: cell-based or functional assay
[8] = molecular target: T1, native mouse MET on living mouse cells; assay: cell-based or functional assay
[9] = molecular target: T2, native human MET on living human cells; assay: cell-based or functional assay; remark: listed apart in the source
[10] = molecular target: T1, native mouse MET on living mouse cells; assay: cell-based or functional assay; remark: listed apart in the source
[11] = molecular target: human MET ECD mutant A (mutations 1, 2, 3) (human) (UniProt P08581); assay: ELISA, MET ECD mutant in solid phase, mAb 0-50 nM
[12] = molecular target: human MET ECD mutant E (mutations 2, 3, 4) (human) (UniProt P08581); assay: ELISA, MET ECD mutant in solid phase, mAb 0-50 nM
[13] = molecular target: human MET ECD mutant D (mutations 1, 2) (human) (UniProt P08581); assay: ELISA, MET ECD mutant in solid phase, mAb 0-50 nM
[14] = molecular target: human MET ECD mutant H (mutations 2, 4) (human) (UniProt P08581); assay: ELISA, MET ECD mutant in solid phase, mAb 0-50 nM
[15] = molecular target: T5, human MET extracellular domain (ECD) (human, UniProt P08581 25-932); assay: ELISA, MET ECD in solid phase, mAb 0-50 nM
T5 construct: range 1-932; recombinant ECD; also called hMET; human MET ECD
Procedure: Using human MET as a template, we mutagenized each of these residues in different permutations, generating a series of MET mutants that are fully human except for specific residues, which are llama. Next, we tested the affinity of selected SEMA-binding mAbs (71D6, 71C3, 71D4, 71A3, 71G2) and PSI-binding mAbs (76H10 and 71G3) for these MET mutants by ELISA. To this end, the various MET proteins were immobilized in solid phase (100 ng/well in a 96-well plate) and then exposed to increasing concentrations of antibodies (0-50 nM) solution. […] Wild-type human MET was used as positive control.
TABLE 18 The epitopes of MET responsible for agonistic antibody binding represent residues conserved among H. sapiens, M. musculus, R. norvegicus, M. fascicularis but not among the same species and L. glama. The relevance of residues conserved among human, mouse, rat, cynomolgus monkey but not llama MET for binding to agonistic mAbs was tested by ELISA. Wild-type (WT) or mutant (MT) human MET ECD was immobilized in solid phase and exposed to increasing concentrations of mAbs in solution. […] All binding values were normalized to the WT protein and are expressed as % binding (EMAX) compared to WT MET.

EMAX (% relative to control) [1]	EMAX (% relative to control) [2]	IMAX (maximum % competition) [5]	IMAX (maximum % competition) [6]	cell scattering score, HPAF-II, 0.001 nM [7]	cell scattering score, HPAF-II, 0.004 nM [7]	cell scattering score, HPAF-II, 0.012 nM [7]	cell scattering score, HPAF-II, 0.037 nM [7]	cell scattering score, HPAF-II, 0.111 nM [7]	cell scattering score, HPAF-II, 0.333 nM [7]	cell scattering score, HPAF-II, 1.000 nM [7]	cell scattering score, HPAF-II, 3.000 nM [7]	cell scattering score, HPAF-II, 9.000 nM [7]	cell scattering score, MLP29, 0.001 nM [8]	cell scattering score, MLP29, 0.004 nM [8]	cell scattering score, MLP29, 0.012 nM [8]	cell scattering score, MLP29, 0.037 nM [8]	cell scattering score, MLP29, 0.111 nM [8]	cell scattering score, MLP29, 0.333 nM [8]	cell scattering score, MLP29, 1.000 nM [8]	Binder	also measured
124%	130%	64.2%	62.7%	0 score 0-4	0 score 0-4	0 score 0-4	0 score 0-4	0 score 0-4	0 score 0-4	1 score 0-4	2 score 0-4	3 score 0-4	0 score 0-4	0 score 0-4	0 score 0-4	0 score 0-4	0 score 0-4	0 score 0-4	1 score 0-4	chimeric llama-human IgG1 mAb 76H10 (antibody, V domains shown) VH: QLQLVESGGGLVQPGGSLRVSCTASGFTFNTYYMTWVRQAPGKGLEWVSDINSGGGTYYADSVKGRFTISRDNAKNTLYLQMNSLKPEDTALYYCVRVRIWPVGYDYWGQGTQVTVSS VL: QAVVTQEPSLSVSPGGTVTLTCGLSSGSVTTSNYPGWFQQTPGQAPRTLIYNTNNRHSGVPSRFSGSISGNKAALTITGAQPEDEADYYCSLYTGSYTTVFGGGTHLTVL	% binding (EMAX) compared to WT MET [3]: 89%; % binding (EMAX) compared to WT MET [4]: 100%; cell scattering score, MLP29, 3.000 nM [8]: 2 score 0-4; cell scattering score, MLP29, 9.000 nM [8]: 3 score 0-4; protection from staurosporine, viability EC50, MCF10A [9]: > 32 nM; protection from staurosporine, viability EMAX, MCF10A [9]: 22.8%; protection from staurosporine, viability EC50, MLP29 [10]: > 32 nM; protection from staurosporine, viability EMAX, MLP29 [10]: 27.2%
116%	117%	63.2%	62.9%	0 score 0-4	0 score 0-4	1 score 0-4	2 score 0-4	3 score 0-4	4 score 0-4	4 score 0-4	4 score 0-4	4 score 0-4	0 score 0-4	0 score 0-4	0 score 0-4	1 score 0-4	2 score 0-4	4 score 0-4	4 score 0-4	chimeric llama-human IgG1 mAb 71G3 (antibody, V domains shown) VH: QVQLVESGGGLVQPGGSLRVSCAASGFTFSTYYMSWVRQAPGKGLEWVSDIRTDGGTYYADSVKGRFTMSRDNAKNTLYLQMNSLKPEDTALYYCARTRIFPSGYDYWGQGTQVTVSS VL: QAVVTQEPSLSVSPGGTVTLTCGLSSGSVTTSNYPGWFQQTPGQAPRTLIYNTNSRHSGVPSRFSGSISGNKAALTIMGAQPEDEADYYCSLYPGSTTVFGGGTHLTVL	% binding (EMAX) compared to WT MET [3]: 91.2%; % binding (EMAX) compared to WT MET [4]: 100%; cell scattering score, MLP29, 3.000 nM [8]: 4 score 0-4; cell scattering score, MLP29, 9.000 nM [8]: 4 score 0-4; protection from staurosporine, viability EC50, MCF10A [9]: 5.04 nM; protection from staurosporine, viability EMAX, MCF10A [9]: 65.2%; protection from staurosporine, viability EC50, MLP29 [10]: 4.85 nM; protection from staurosporine, viability EMAX, MLP29 [10]: 62.3%
130%	144%	97.8%	91.9%	0 score 0-4	1 score 0-4	2 score 0-4	3 score 0-4	4 score 0-4	4 score 0-4	4 score 0-4	4 score 0-4	4 score 0-4	0 score 0-4	0 score 0-4	1 score 0-4	2 score 0-4	4 score 0-4	4 score 0-4	4 score 0-4	chimeric llama-human IgG1 mAb 71G2 (antibody, V domains shown) VH: EVQLQESGGGLVQPGGSLRLSCAASGFTFSIYDMSWVRQAPGKGLEWVSTINSDGSSTSYVDSVKGRFTISRDNAKNTLYLQMNSLKPEDTAVYYCAKVYGSTWDVGPMGYGMDYWGKGTLVTVSS VL: SSALTQPSALSVSLGQTARITCQGGSLGSSYAHWYQQKPGQAPVLVIYGDDSRPSGIPERFSGSSSGGTATLTISGAQAEDEDDYYCQSTDSSGNTVFGGGTRLTVL	% binding (EMAX) compared to WT MET [11]: 92.1%; % binding (EMAX) compared to WT MET [12]: 41.4%; % binding (EMAX) compared to WT MET [13]: 114%; % binding (EMAX) compared to WT MET [14]: 40.2%; cell scattering score, MLP29, 3.000 nM [8]: 4 score 0-4; cell scattering score, MLP29, 9.000 nM [8]: 4 score 0-4; protection from staurosporine, viability EC50, MCF10A [9]: 1.06 nM; protection from staurosporine, viability EMAX, MCF10A [9]: 64.8%; protection from staurosporine, viability EC50, MLP29 [10]: 1.99 nM; protection from staurosporine, viability EMAX, MLP29 [10]: 58.3%; % binding (EMAX) compared to WT MET [15]: 100%

— patent US20210024639A1 (AGOMAB THERAPEUTICS, published 2021)
